Measured values as given in the DeepSol protein solubility set.

Assay: soluble on expression in E. coli; label from the status in PepcDB or PDB records
For “MGSDKIHHHHHHMNIETLMIKNPPILSKEDRLGSAFKKINEGGIGRIIVANEKIEGLLTTRDLLSTVESYCKDSCSQGDLYHISTTPIIDYMTPNPVTVYNTSDEFTAINIMVTRNFGSLPVVDINDKPVGIVTEREFLLLYKDLDEIFPVKVFMSTKVQTIYKEVRLDQAVKLMLRRGFRRLPVIDDDNKVVGIVTVVNAIKQLAKAVDKLDPDYFYGKVVKDVMVTNLVTIDELASVNRAAAEMIVKRIGSLLILNKDNTIRGIITERDLLIALHHILVMEKFKEKL”, the “soluble on expression in E. coli” value was “not soluble”.
With “MGSDKIHHHHHHMNILEKLFSLKRKVALVTGGGQGIGKAIAQALAAAGAAVLIMDINEETARRTVEEIKEKGGEADFYVGDVTKEEDCFGAVKKALDRWGKLDIGVNNAGIGDWCEAENYPVEKWKKVIDVNLVGVFLSAKAEFHAMKERKYGKIINIASMSGHIVNKPQKQTAYNASKAGVIHLTRSLAAEWAPYGIRVNSISPGYIRTPLIESPNVKDLVPLWLDMIPLGRLGEVDDLIGAAIFLASPASDYMTGHDLVIDGGYTVW” the “soluble on expression in E. coli” value was “not soluble”.
For “MGSDKIHHHHHHMNILITGMAGFIGHAVAKRLAAEGHDIVGIDNLNDYYDVSLKQARLDDLAAWPNVRFERLDLADRAGMERLFADTRFERVIHLAAQAGVRYSLDNPHVYAQSNLVGHLNVLEGCRHQQVPHLIYASSSSVYGQNAQVPFSTADAVDHPISLYAATKKANELMTHSYSHLYGIPATGLRFFTVYGPWGRPDMAMFKFTRAILADEPLPVFNHGDLSRDFTYIDDIVEGVVRIMQAIPEADPDSPGASPDQSTAPFALYNIGHGSPVALMDFVHALERATGRTARCDFKPMQPGDVPRTWADTDALFEKVGYRPQVGVDEGVARFVEWYRSFHGI”, the “soluble on expression in E. coli” value was “not soluble”.
In the case of “MGSDKIHHHHHHMNIQDYPDRDMLAIDLANHLAGELEATLFTHDSATLAVAGGTTPGPVFDVLCAADLDWHRVMVLPTDERCVPQDHSRANARLIAERLLVNRAASARYLPLYLPGAEPEDCLAEVEALLTPALPLSVLVLGMGEDMHTASLFAGMPGLAAALDADAPALAVARPETQPENRITLTAPVLNGALSKHLIIYGAAKRKALERAMSMHPEEAPIAAVLDGITVHWAE”, the “soluble on expression in E. coli” value is reported as “not soluble”.
In the case of “MGSDKIHHHHHHMNKANTVDTSTEAVERVAKEISGLASREAVSMIQGWEDAFELYLKAADQLSALAAERDTLANQVEDCARECAKLAEEIQRLQAQLAETRASLYALEKGVWRDGYPDKISGSEWFIALLEDNRRVVLRSLPEEHSYDYTTADDTYLAAWKIKRWMQFPDANFIAPDTIVHTTVERIEQIKEEARNAALEEAAEVVARIKKPTIPPMFMGQTRAEAYDMGQHNACESKAELIRTLKSEPAPHPDCPECSGSGMRDSGGVQPWGDHIDAPCDCENAPAPRQSVQKAADNLAKGLRSAGYFIPSSIIFDVMVQKKSAS”, the “soluble on expression in E. coli” value is reported as “not soluble”.
For “MGSDKIHHHHHHMNKIFKCFPDGKFKVLTMSYDDGKLSDKKLVSIFNKYGIKGTFHINSGLIGSYNRLTKAEIKTLYSGHEVSAHTLTHPTIARCPMEQVTKEILMDRENLEEIVGYPVRGLSYPNGSYNDSIRNLLKYLGIEYSRIVGNSDSFDLPSDFTAWKATCHHNHNLMEHAKEFVFLYKKQYLYMMYVWGHSYEFDRDNNWHLIENFCSYISNKDDIWYATNIEIVDYKNVLDNLKFSAKSDFVYNPSAKSAWITVNDEIVEIKGGTQLKLS”, the “soluble on expression in E. coli” value was “not soluble”.
For “MGSDKIHHHHHHMNKVLNKESAPAYRLTPEWELYTSVVTTSLNNSFYEQEEERIERVRTLIGKCNPLFVAQLAAYARETMNLRSIPLVMAVELARIHQGDNLVKRVTARTVRRADEITELLACYQQANRRTGTKKLNRLSKQLQAGLQDAFNTFDAYQFAKYNRSAEVCLKDALFLVHPKAKDERQQEIFNGIVNDNLPVPYTWETELSALGQRTFATEEERRKAFRAKWEELIDSGKLGYMALLRNLRNILEAEVSADHILTVGKRLSSEKAVENSRQLPFRFLAAYRELSKTPSLYATMLMTALERAVQVSARNITGFDESTRVLIACDVSGSMQCPVSAKSKVLYYDIGLLLGMLLKSRCKQVMTGIFGDRWKIINLPDTGILSNVDAFYKREGEVGYSTNGYLVIKDLIDRKAQMDKIMMFTDCQLWNSHSDLQITDLWRKYKKICPAAKLYLFDLSGYGNTPLDITRDDVFLIAGWSDKIFDILSAIDKGNDALQEIKKIVV”, the “soluble on expression in E. coli” value was “not soluble”.
With “MGSDKIHHHHHHMNLLEVKSLKARFKRGGFALESVNLTLKKGECVSIVGESGSGKSFLAQLIVRLFPQGSVEVEEGEILFLGENLLDFSQERLEGVRGSEIGFVFQEPLISLNPLHTIEKQLAEAILLHRSLSREELKREIGALYASVGLEALKGRAKIYPHELSGGQRQRVMIAMALANSPKLLIADEPTTALDVSVQKQILDLLFRLKEERGVSLLLISHDLGVVRHYADKVYVMKGGKVVESASKEELFAHPKHPYTQALLSSLHLPLKESPPSRGEILLEAENLDLSFVLKKDWLGRPKEYLRALSSISLRLREGENLGIVGESGSGKSTLALALCKLLSFEGRLRMGHEEMAKMEESRFRPFRSMIQIVFQDPYGSLSPRLSIEEILREGLEVHFPAQKESFERRIIEALEGVGLESSYRYRYPNELSGGQRQRVAIARALILRPKILILDEPTSALDRSIEHQVVALLLELQKRYNLTYLCISHDLRVIGALSDRVAVMKGGRLIEEGETSLILQSPTHPYTQELIGSLLL” the “soluble on expression in E. coli” value was “not soluble”.
In the case of “MGSDKIHHHHHHMNLNALIDFMLVANNEGLGKASRASGISKATLSRRIADLEEQLGVRLIERSARGLKLTEAGEMLMARTEGPLGEVAEAMTATRDGVATPRGRLRVASPVLFSQLAMGRIGAGFYAAYPEVIIEVTAEDRLVDLVEEQFDVAIRINPDPDSRLVGRCFARDRLVVVAAPELPRPMPGAIRQTPAIVTSSFQPTHWKLDNGHLVLKPIPKLWFSSLMMVRDAAVAGGGAALIPQSIAWSQLASGQLVQWGTVSGAEPELWVLHTSRRLVSPKVRAFVDFICASNPDMSLVLKG”, the “soluble on expression in E. coli” value is reported as “not soluble”.
With “MGSDKIHHHHHHMNLRRRGIVVSFHSNMVTVEDEETGERILCKLRGKFRLQNLKIYVGDRVEYTPDETGSGVIENVLHRKNLLTKPHVANVDQVILVVTVKMPETSTYIIDKFLVLAEKNELETVMVINKMDLYDEDDLRKVRELEEIYSGLYPIVKTSAKTGMGIEELKEYLKGKISTMAGLSGVGKSSLLNAINPGLKLRVSEVSEKLQRGRHTTTTAQLLKFDFGGYVVDTPGFANLEINDIEPEELKHYFKEFGDKQCFFSDCNHVDEPECGVKEAVENGEIAESRYENYVKMFYELLGRRKK” the “soluble on expression in E. coli” value was “not soluble”.
In the case of “MGSDKIHHHHHHMNLTGCGEKFYQHCKVILSEFEWATYEISYNQQYPEGELKLNTPMSFSNIFLQHIISDFIEKYPSIKIDLFMTDQLLDVNQHKFDLTIRLDGSAPSLANSKILNTYQRYLYATPEYFNQHGLPTSLEELKEHKFLIYYQDSRHKKLIFQKDQKEVSFNCFPVMTCNNGELLLDMCLKDHGIVFLPEFIAEPYYKEGKLQKCLEDYTSQPLHLYVTWPNRKILSKKVKLFIDFLTHQIIPIK”, the “soluble on expression in E. coli” value is reported as “not soluble”.
For “MGSDKIHHHHHHMNNIIATILKYAGLEGKAVIPLKGATSSYVFRAGDSVFRIHTNPAWLEQEPDLVAHEVFALRATGRLGPDVENYQLTWEGEIPPWIQMTCLPGEVRLEPLNRAYLKQLAKTLVAIHQLPVPEARYQYAPYVTKRTVPFWAVQKEMWQRAVAEPPATSQQVRFIHRDFHPVNVLYESAEKYNVVDWINGCVGPIEADVAHCRLNLMLLESVEAADQFLAEYIAYSGFSYDRKWDLTAVFDFEPDTLNVYPGWKAYGKANISQGNVRERMENIVLKVYENDESGY”, the “soluble on expression in E. coli” value was “not soluble”.
In the case of “MGSDKIHHHHHHMNPPKRLLVIHRALAPYRIELLNTLSAAFDTHIYFEFASPIEQRFDAGELAKRVHFQSSVLPPAPKIPGLKNFRPYAASLVRSLRPDVVLCSEFNLLTLTLTAASRLFSPKTKLYVLCDDNEQMAEAELHYGRGLKHRMLSYVEGVILCDSRACDLYASRFATLDRERFVYLPIVQDEKVLRPLYEQVFGIGRDLRHALIPAGARMILYVGRLSEEKNLPALIDNLSTLPDDVHLVIVGDGPMQSALMNQVQATGHPERIIFAGKKEGAELYAYYTQADCLVLPSMRECFGSVVNEALIAGVPVVCSDIAGASCLVTESNGRTFSPMLPNALSQACNDLLGSIAPFCGDSLRPSLMPFTFERAIAPVLSLLSR”, the “soluble on expression in E. coli” value is reported as “not soluble”.
In the case of “MGSDKIHHHHHHMNPQTRKRQNLTAVYAALLQLMSQKPLSRISITELCQHAQVSRTYFYRNFANFDQIILAYQKQTILQYLRQLPRQSKVKLQVLMTQYFTLMQQMAATNALLIKNEKTQIFIQSFEAVFALLIKQDRIIGSSNTALRQPYYTAYFSGAVINMLVHWQQNGMVETPAYLAQQVTRFTLRDNESRS”, the “soluble on expression in E. coli” value is reported as “not soluble”.
